Assay [1] has as its target F14Bpa-Rop (UniProt P03051). The experiment in a line: cross-linking + SEC.
For assay [2], the target named is F14Bpa-Rop (UniProt P03051). Put plainly: cross-linking.
Assay [3] concerns the target F14Bpa-Rop (UniProt P03051). The experiment in a line: cross-linking. The source holds these as a separate data set.
The target of assay [4] is F14Bpa-Rop (UniProt P03051). Put plainly: SEC.
The target in the next assay is wild type Rop (UniProt P03051). The experiment in a line: SEC. In general terms: In gel filtration, larger molecules generally elute earlier.

As a reminder, the stoichiometry N is a count of units in the complex or per binding partner.

For the substance “F14Bpa-Rop (from UniProt P03051 1-63) (natural protein)”, the stoichiometry N in the assay with F14Bpa-Rop [1] came to 4; in the assay with F14Bpa-Rop [2], 4; with F14Bpa-Rop [3] it was 4; in the assay with F14Bpa-Rop [4], 2.
Substance “wild type Rop (from UniProt P03051 1-63) (natural protein)” yielded a stoichiometry N with wild type Rop of 2.

These data come from publication PMC3085015.
